The text below walks through data of a protein production outcome set (Wang et al. 2014).

This data set in a line: label from the status in PepcDB records.

For “MHHWVQASSSDFSGTPPQARSGHTAVNVGKSMVVVFGGLVDKKFLSDIIVYDIENKLWFEPECTGSESEGQVGPTPRAFHVAITIDCHMFIFGGRSGGKRLGDFWVLDTDIWQWSELTSFGDLPTPRDFAAAAAIGSQKIVLCGGWDGKKWLSDVYVMDTMSLEWLELSVSGSLPPPRCGHTATMVEKRLLVFGGRGGGGPIMGDLWALKGLIDEERETPGWTQLKLPGQAPSSRCGHTVTSGGHYLLLFGGHGTGGWLSRYDVYYNDTIILDRVTAQWKRLPIGNEPPPPRAYHTMTCIGARHLLIGGFDGKLTFGDLWWLVPEDDPIAKRSSVPQVVNPPEIKESERELDKERGQDGFSIVDLQQKMGISVSSGLRLQIPEESEDQEFVELGTRLIEGDVVDERASMIQMAAQALRQHWKQSTPRTLQLKELGSLLRDYQRLVTRIFTTQSSLTSADFGLPGTKTFTFYHIKSSSELRINDISKLLEEYKTLVI”, the protein production entry is on record as “not failed”. Consider “MHIKIDDLTGRQVVSLVNEHLHSMTLMSPPESIHALGLEKLRGPEITFWSAWEGDELAGCGALKELDTRHGEIKSMRTSASHLRKGVAKQVLQHIIEEAEKRGYERLSLETGSMASFEPARKLYESFGFQYCEPFADYGEDPNSVFMTKKLLEHHHHHH”, for which the protein production entry was “not failed”. As for “MHIPDGIIPLWQCAVYWAVALINIGIFFYIFSKKPQKERRIVGTGLFAAAAAAVSSISVPSPFGVPVHFFLIPLAAILLGPLTAVIVATLCLVIQFFILGMGGLTSMGANILTMGIGLGVGTYAVYSVVSELDRSLAVFTATFFGIMVATVFHIMILLAAGVAGPEMLMATLIPFYIFVGVIEGAANIFIVSFLERMKPELTMMERV”, the protein production entry is given as “failed”.

In the case of “MHKEENMSDLYLKLVNTPVGKTAAQSLGLPSPAPLKRLKRVDQPFIEGDVLIGAGNGARAIATLGSIVGASPATLHHATGPETLAESAKTSNKAQALDITGEVSGKFSALIFDASGLQKPDELRALYDFFHPTIRKLATNGRVLVIGQDPHTCRKAPQAAAQQALEGFVRAVGKEIGKKGATANLVWIAPNAENQLDSSVRFFLSPRSAYVSGQVVRIGKADEAKATNPVAPLAGKVALVTGASRGIGAAIAETLARDGATVIGLDIPPALEELQKVTGALKGKALACDITDEKAPKLIADFIEKETGGVDFVIHNAGITRDKTLGNMPEHFWDMTIAVNLTAEELIDEELAERKLMRENGRIVCISSISGIAGNFGQTNYSCAKSGVIGYVEAMARHLKNGITINAIAPGFIETQMTAAMPFTIREAGRRMNSLSQGGQPVDVAEAIAWYCNPASAGVNGNVVRVCGQSLIGK”, the protein production result is “failed”. Turning to “MHLFIEGEIEHLVFPGLKSYIVPVWDLRTYQIFDMALRVHKNIQQRDMVIGRNLGNWILRGLDRMKPSAQVLLPKNTEPSIDKAKRVLQSTRLKPHVNTQTPQNREVDRNLFMSLRNFRSKYPIASMMMIKPPRSTGTTTQYRPYSVGESSLIKPIYARGGFNSVIRKDILQWMVQKR”, the protein production entry was “failed”. As to “MHLYDKRPGGGASFSQILGQAKNRQGIFFNTTFAVMGHVAKASGRVTETDIRIATLLMDQMRLTGDARKEAQQAFREGKEPDFDLCSSLQAFRAVTQGRQELVQMFIEIQIQTALSDGELDAAEHAILMTVAQELGYGRLEHHHHHH”, the protein production entry was “failed”. The result for “MHMQVIQLHHPYEPNQIPNEEVVMVLGFFDGVHKGHQKVIETGKKIAEEKGLKLAVMTFNQHPSIVFQKVLPENMKYLTSLEQKERLMANLGVDILYIVEFTSAFAQLKPQDFVDQYIVNLNSAVAVSGFDYTYGPKEIAGVKQLPTYAQGRFEVVTVPKEEMTGAKISSTRIREKMEAGEMEEVTELLGYIYETEGTVVHGDARGRLLGFPTANVKVKSTVRLPRIGVYAVQIEVGGKWYVGMGSIGHNDTFGEGRDLTVEVYILDFHQDIYGEQVVVRWNHYLRDQVKFNGAEALIDQLKQDERDTADYFQQSEDK” reads “failed”; that for “MHNFSFDVDESYAKKNNEILRDAKRLQISALCLGLILGGGAVAVYLFSNGAVWMWMIAIVMVFLALLSFIMIPVIPRQMGNAQTLYDDYELAPAIIAEVNPRDVVLLALVNRNVNPEAKPEWALATRTIVRVGAHERRLGERIPSVAITGRRTVKDQDHWDEISPMPITWGTTDKDIIREAEKTIPHELWAKLEKNRGKLEDVKKTPNNLFKL”, “failed”. Turning to “MHNSIMNKVAVIGLGNIATRHRRNLKSLFPNVELLVMSASGRIPTEEISDSDGIVTSIEALIEANVELVIVASPAPFHAQHSIPLIEAGIPTLIEKPVTTTREDANAIKKALNEHGTPVAIGYCLRYLPSAQKLKILLDHKAIGTLYNAHIEIGQYLPDWRPSKNYRECVSANEKLGGGALFELSHELDYAQWLLGPLALQHAILRSSDELDLQVEDMADILTLTESGAVASIHLDFLQRKAHRQCSFIGSEGRIDWDLIQNQLTLTTAAEAKVIYSEPEWDKNQMYLAMVTDFIQMIKQQPHNCIAVTDASFTVDLISQIKQKAY”, the protein production result is listed as “failed”. Regarding “MHPDTTLILIAAASIVLLVLLVTRLKLHPFLALMVAAAFLGLASGLAPTDAVKTFQKGFGNILGSVGLVVGLGSMLGGLLLNTGGADRIANAFVGRGSTVWLPTSICAAALLIGMPHLFDVSFVMLVPLVFAIAKRTGSHLMRVGLPMAAGLYVSHGFLLPHPSPTLALAIYHGDAGRAILFGFLLAIPTAILSGPLLTSFAMRWFKDPIDITHSPIMTAAGRSDVTTLDNAPRLPVVLLTVLLPPGLMLLRTLLADHVPEGAARAFLDGIGNPIVSLAIAVLFAIWALGVRSGRSLGEIQKLLGKSLAPAAGVILIVGAGGGLKEMLLGTHIGDMIASGAAQWAISPLVLAWVIAALMRIAVGSATVATVTAAGLMAPVQALHPEISPELMTISVATGGLMLSHLNDSGFWLFKEYFQLTVAQTLKSWTLMVSVQSALGLAGVLLIDAVIR”, the protein production entry is recorded as “failed”.

Turning to “MHPLLRRLDLNLLLVFDALYRHRNVGTAASELAISASAFSHALGRLRQGLDDELFLRQGNRMQPTQRAEHLAAAVAAALRALGEGLEEWRPFVPGQSQRTFVFAATDYTAFALLPPLMNRLQHSAPGVRLRLVNAERKLSVEALASGRIDFALGYDEEHERLPEGIQAHDWFADRYVVVARRDHPRLAGAPTLEGYLAERHAVVTPWNEDSGVIDRLLARSGLRREVAVQLPTVLAALFLAGSTDFLLTAPRHAARALAEAAGLALYPAPFDIPPYVLRLYSHVQHVGRDAHAWMIGQLKGLDISRTG”, the protein production entry was “not failed”. “MHQDVLLGGRYRLGAQLGGGSEAYVNEAWDLLSGKTVAVKIFRSTNSLDNAPFRRELEIHGRLRHRNIVRILDSGDTDSRGDGAGVGQDNRHFVVMELVAGKDLRWILQDKPASPEQTAAWMTDVARALAHVHRRGIVHNDIKPGNILVDFASDPGGPGVAKLADFGIALNGRHGVPNSSSGTPHYLSPEEVCGGTSTTASDIYSLGLVALECLTGTKAFPGPPLESMVARTLGEPRIPGTVRRRWSMVLHAMTDPDPAGRPSASQTVGMLRRLSW”: the protein production entry is “failed”.

On to “MHRGKETSTKPKKPVTRRKDFSASGKGKKRKKRRVHKMKPWQIALICVGAFIAALLAFGLMYVYAKWSKIDTKSIKADDIIINEEVKKNKNVDLGDGYTNVALFGVDSRDGDLGEGNRTDCIIVASLNNKTKEIKMVSVYRDTLLDLSEGTYQKCNAAYSYGGPVLAINMLNMNLDLDIQDYVTVDFGAIADAVDLLGGIEIEVTEEELPYINQYIPETANSAGKAANLLQSAGLQKLDGTQATTYARIRSTAGGDFTRTERQRLVIEKMFEKAKGADIGTLNKIIDKVFPQVSTSFTLPEILKYASAYSEYKLVGNMGFPEDKYTDMLSEIGSVVVPDNLVSNVTKLHEFLFGITGYVPSSTVQTVGSNISYTASAKKSSGTGSQSSYDSGESYNDSGYTDNSGNYEGGNTGGNYDDGSMSGNSGNTGNSGETGGVGGNGSTGDNTGGTTVEPPVVPDGGTDSGGGQTEAPPEGTVQ”, for which the protein production entry is given as “failed”. To “MHRLYRFCLFGMALLSSIAASAAPTDQELIAALYAKVQARQDWQAQARQCPGDNMPARAAIRATQANRCETPEQLGACLQRCEAGDGNDCYWLATTLQQAKGPAEGYEPLYQRACSLGLVSGCTNRAAGMLTADADSQGTRHCAVQTFNKACELDDPWACTMYGFHLSRGIGVAPDADLALKVLDKSCKHGPADPACSGARQLQEDIRNALEAAKR” belongs “failed”; to “MHRVHGTLHASFTIECRNMFKRFFLALIGVGILLSESTQASESPPYSMVLLTENFPPFNMAVDGKNFAQENNIDGIAAEVVREMFKRANIGYSMTLRFPWDRVYKLALDKPGYGVFSTTRLPEREKLFKWIGPLGSYDWIMLARGDSPITLASLEQAKDYRIGAYKGDAIGERLNAMGLNPILMLRDRDNVKKLANGQIDLWAVGDPVGRYLAKLEGVSGFKTALRFNSAELYLAVNKSTPDEIVNRLQAALDQMRTEGWVDAVKARYQLEHHHHHH”, “not failed”; to “MHSDALSWGHGPRLFEVFLEPTCPFSVKAFFKLDDLLAQAGEDNVTVRIRLQSQPWHMFSGVIVRCILAAATLEGGKESAKAVMTAVASHREEFEFEHHAGGPNLDATPNDIIARIERYSGLALAEAFANPELEHAVKWHTKYARQNGIHVSPTFMINGLVQPGMSSGDPVSKWVSDIG”, “not failed”. On to “MHSGLNPQDIAFLKTIIAFFFLSVFLFKVPVSQKIAYISSTPSKLSVFTQIAICAFLGIFSLFFFETIAYNHGAAANVVVVLMASAAISALFFGRLILKESIYINSLIGTLLAVAGISIISWKGENSLLMLINASIAGTGYGLFSVLVKKFKLNGGLFLTKYLLLFGSVYLAVPFLVNLHAIHFNIDIVLGLIGLAVLPTILGFFCTTKALSYMSAAKVQVTELSEPIFAALMAWVFIHEQPTLSFLYGAIFIISGIFVMNRAPKSN”, for which the protein production entry is reported as “failed”. To “MHSIQSPRLRQHFPRRSPKKLALKKSGGLGHRAKASHCYRIVLYSHDTMGLGHKRRNLLIAQTLQKSRLPVEILVITGIEEGNEALTAAGINYVNLPSLRKNGDGSYSGRDLDLPLEKLIAWRSQLILKTIQQFQPDVLMVDNVPRGVERELDPSLKYLRQRPESLCVLGLRDILDQPGTVQRDWGQADNERAIRRYYDAVWVYGDPQVYDLRHEYGFAPDVTAKMRPLGYFHQGDRLQHLTKPWQETLSNWKLPSRFILGAVGGGQDGETLAIAFAQIPFTADLPGVLLTGPFMPESVRQKLKVSAQNNPDLTILPYFSEPTMLMWAAERVITMGGYNTTCEILSFQKPALIIPRIKPRQEQWLRATRLKQLGLVDVLHPDQVNAQNLTAWLHSAPTNQYNKPVLNLRATQQLPLVLGQLLSTRNCFMSQAC” belongs “failed”; to “MHSNINTLIANHRAGHALDQAFYTDAEVFQTDLQEIFYKEWLFAIPACELDKPGSYVTHQVGNYNVIIVRGADNVIRAFHNACRHRGSVICKAKKGNNPKLVCPYHQWTYELDGRLLWARDMGPDFEPSRHGLKTVHCRELAGLIYICLADEAPDFERFAEVARPYLEVHDLSNAKVAHESSIVERGNWKLVWENNRECYHCGGNHPALCRTFPDDPSVTGIEGGETPSNLQAHFDRCEQAGMPSGFHLSGDGQFRVARMPLKEGAESYTMDGKTAVRRWLGRAAFADAGSLLKFHYPTTWNHFLSDHSIVFRVTPISPTETEVTTKWLVHKDAVEGVDYDLQRLTEVWIATNDEDREVVEFNQMGINSPAYEPGPYSPTQESGVLQFVEWYLSTLKRNSGPHAVAAE”, “not failed”.
